This test deals with Neonatal Fc receptor (FcRn) on CHO-FcRnGPI cells. Put plainly: flow cytometry on CHO-FcRnGPI cells, pH 6.4. For orientation: In flow cytometry, cells or beads pass a laser one at a time.
Neonatal Fc receptor (FcRn) on CHO-FcRnGPI cells, sequence (P55899 24-297, chain 1 of 2): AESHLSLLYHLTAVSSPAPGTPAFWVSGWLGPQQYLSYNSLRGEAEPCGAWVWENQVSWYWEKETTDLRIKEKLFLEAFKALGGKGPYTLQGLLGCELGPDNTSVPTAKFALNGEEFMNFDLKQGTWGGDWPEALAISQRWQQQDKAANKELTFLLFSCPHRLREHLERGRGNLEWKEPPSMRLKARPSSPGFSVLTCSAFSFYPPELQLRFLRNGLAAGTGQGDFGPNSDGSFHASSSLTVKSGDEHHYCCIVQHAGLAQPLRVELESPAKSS
Neonatal Fc receptor (FcRn) on CHO-FcRnGPI cells, sequence (P61769 21-119, chain 2 of 2, further chain): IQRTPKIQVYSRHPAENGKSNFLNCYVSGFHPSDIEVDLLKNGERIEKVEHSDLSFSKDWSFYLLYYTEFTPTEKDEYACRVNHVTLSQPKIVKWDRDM

As for Control mAb (antibody), the EC50 (commonly the concentration needed to bring the measured effect to its halfway point) is 50.4 nM.
